From paper PMC10017356 (2023)
Each block holds one binder with its values, some of them ahead of it. No end group written: not given here. *: point of attachment. Dansyl = CN(C)c1cccc2c(S(=O)(=O)*)cccc12

Biological target: T1, Presenilin-1 peptide (Homo sapiens)
T1 chain: Dansyl-AFHQFYI
Test: stopped-flow kinetics (FRET)

Kd: 5.5 µM
B1: X11 PDZ1 651-744 (protein)
chain: SENCKDVFIEKQKGEILGVVIVESGWGSILPTVIIANMMHGGPAEKSGKLNIGDQIMSINGTSLVGLPLSTCQSIIKGLKNQSRVKLNIVRCPP

Kd: 7 µM
B2: X11 PDZ1-PDZ2-ΔC 651-827 (protein)
chain: SENCKDVFIEKQKGEILGVVIVESGWGSILPTVIIANMMHGGPAEKSGKLNIGDQIMSINGTSLVGLPLSTCQSIIKGLKNQSRVKLNIVRCPPVTTVLIRRPDLRYQLGFSVQNGIICSLMRGGIAERGGVRVGHRIIEINGQSVVATPHEKIVHILSNAVGEIHMKTMPAAMYRL
